# Data as given in patent US20120321619A1 (Bayer, published 2012).
# T1: recombinant soluble human C4.4a (human, UniProt O95274 31-308)
# T1 construct: recombinant, soluble, purified protein; also called hC4.4a; full length C4.4a
# T1 sequence: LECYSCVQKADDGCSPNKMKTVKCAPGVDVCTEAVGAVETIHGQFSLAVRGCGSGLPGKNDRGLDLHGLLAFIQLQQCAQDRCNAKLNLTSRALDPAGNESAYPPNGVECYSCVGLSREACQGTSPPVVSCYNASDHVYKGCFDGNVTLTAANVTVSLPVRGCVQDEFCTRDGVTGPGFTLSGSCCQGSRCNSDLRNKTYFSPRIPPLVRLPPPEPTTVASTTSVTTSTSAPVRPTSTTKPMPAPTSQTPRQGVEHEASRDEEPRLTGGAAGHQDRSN
# T2: human C4.4a on transfected A549:hC4.4a cells (human, UniProt O95274 31-326)
# T2 sequence: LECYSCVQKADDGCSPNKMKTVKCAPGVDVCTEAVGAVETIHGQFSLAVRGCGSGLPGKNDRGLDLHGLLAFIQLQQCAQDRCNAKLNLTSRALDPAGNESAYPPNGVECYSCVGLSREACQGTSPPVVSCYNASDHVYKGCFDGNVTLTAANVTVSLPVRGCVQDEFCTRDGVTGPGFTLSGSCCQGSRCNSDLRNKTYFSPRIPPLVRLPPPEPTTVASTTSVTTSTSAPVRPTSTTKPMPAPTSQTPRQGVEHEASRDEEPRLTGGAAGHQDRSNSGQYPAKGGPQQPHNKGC
# T3: murine C4.4a on transfected CHO-S:mC4.4a cells (mouse, UniProt Q91YK8 33-343)
# T3 construct: full length GPI-anchored form, stably transfected; also called Mouse C4.4a:CHO; mC4.4a: CHO
# T3 sequence: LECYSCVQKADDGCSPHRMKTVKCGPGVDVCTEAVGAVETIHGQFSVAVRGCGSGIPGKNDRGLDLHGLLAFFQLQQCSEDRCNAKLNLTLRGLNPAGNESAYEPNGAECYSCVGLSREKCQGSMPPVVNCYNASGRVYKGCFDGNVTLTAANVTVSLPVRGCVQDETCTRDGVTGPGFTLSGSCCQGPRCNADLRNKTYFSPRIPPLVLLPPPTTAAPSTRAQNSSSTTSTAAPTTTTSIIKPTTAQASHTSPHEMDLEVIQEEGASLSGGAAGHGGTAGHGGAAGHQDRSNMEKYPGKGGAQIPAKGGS
# T4: human C4.4a natively expressed on tumor cell lines (human, UniProt O95274 31-326)
# T4 construct: whole, on cells; also called NCI H292; NCI H322
# T4 sequence (looked up): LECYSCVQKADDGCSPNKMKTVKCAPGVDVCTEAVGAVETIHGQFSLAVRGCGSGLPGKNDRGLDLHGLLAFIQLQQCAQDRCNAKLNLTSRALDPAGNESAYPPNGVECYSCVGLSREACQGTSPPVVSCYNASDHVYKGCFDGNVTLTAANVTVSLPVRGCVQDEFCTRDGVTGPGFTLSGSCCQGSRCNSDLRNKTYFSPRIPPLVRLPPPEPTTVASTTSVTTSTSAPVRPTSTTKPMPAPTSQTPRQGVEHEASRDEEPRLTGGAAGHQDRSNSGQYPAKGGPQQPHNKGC
# T5: recombinant soluble murine C4.4a (mouse, UniProt Q91YK8 33-343, limits assumed)
# T5 construct: also called mouse C4.4a; mC4.4a
# T5 sequence (looked up): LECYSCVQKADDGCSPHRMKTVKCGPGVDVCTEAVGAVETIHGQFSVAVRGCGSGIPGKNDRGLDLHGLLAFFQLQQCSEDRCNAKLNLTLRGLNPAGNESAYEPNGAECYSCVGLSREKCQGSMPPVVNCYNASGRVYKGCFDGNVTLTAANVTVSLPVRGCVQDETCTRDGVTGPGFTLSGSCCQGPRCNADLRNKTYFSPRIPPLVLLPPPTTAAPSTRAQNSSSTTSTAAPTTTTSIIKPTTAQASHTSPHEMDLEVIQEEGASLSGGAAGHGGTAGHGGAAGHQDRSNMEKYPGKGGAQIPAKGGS
# How the values were obtained:
# [1] = target: T1, recombinant soluble human C4.4a; assay: ELISA, IgG1 on coated recombinant human C4.4a
# Experimental: (§1) FIG. 2 depicts binding curves of anti-C4.4 antibody M31-B01 and M20 D02 S-A on recombinant human C4.4a (A) and murine C4.4a (B) respectively. Briefly, 96-well MTP were coated for 16 h at 4° C. with recombinant human or mouse C4.4a (100 ng/well plates were washed 3 times with PBS/0.05% Tween 20 (=buffer B) treated with blocking reagent (PBS+2% BSA), and washed again 3 times with buffer B. After that anti C4.4a antibodies of the invention were added in concentrations of 0.39 ng to 400 ng/per well and incubated for one hour at 20° C. After washing 3 times with buffer B, 20 ng of Protein A were added in 100 μl buffer B to each well. Color reaction was developed by addition of 50 W 3,3′,5,5′-Tetramethylbenzidine (TMB) (Sigma). Data for EC₅₀ determination were recorded after 18 min by measuring extinction […] a Tecan infinite plate reader. EC₅₀ values for M31-B01 were 0.24 and 0.29 nM on human and murine C4.4a, respectively. And for M20-D02 S-A EC₅₀ values were 0.3 and 0.38 nM on human and murine C4.4a, respectively. This indicates high affinity binding of anti C4.4a antibodies of the invention to both human and murine soluble recombinant C4.4a.
# [2] = target: T2, human C4.4a on transfected A549:hC4.4a …; assay: cell-based or functional assay
# [3] = target: T2, human C4.4a on transfected A549:hC4.4a …; assay: FACS titration on transfected A549:hC4.4a cells (printed 'A549:C4.4a'), IgG1 format, phycoerythrin-labelled goat anti-human IgG detection
# Experimental: (§2) FACS titration was performed in a 96 well microtiter plate, in which serial dilutions of the primary antibody in a volume of 50 W of FACS buffer (3% FCS, in PBS) were mixed with 50 μl of a cell suspension consisting of 2×10^5 cells/ml which had been detached with Cell Dissociation Solution (1×) Non-enzymatic (Sigma), and resuspended in FACS buffer. Incubation was performed at 4° C. for 1 hour with agitation. Cells were pelleted, washed with FACS buffer and resuspended in 100 μl/well of Phycoerythrin labeled goat anti human IgG (Dianova) solution in FACS buffer. Incubation and washing was performed as before. Analysis of cell-bound antibodies was done at the respective detection wavelength using the FACS Array device. EC₅₀ values were determined from fluorescence medians of duplicates using Swift 8.0 software.
# [4] = target: T3, murine C4.4a on transfected …; assay: FACS titration of IgG1 on CHO-S:mC4.4a cells
# [5] = target: T4, human C4.4a natively expressed on tumor …; assay: FACS titration on H1975/BCRP cells (native C4.4a), IgG1 format, phycoerythrin-labelled goat anti-human IgG detection
# Experimental: as §2
# [6] = target: T4, human C4.4a natively expressed on tumor …; assay: FACS titration on BxPC3 cells (native C4.4a), IgG1 format, phycoerythrin-labelled goat anti-human IgG detection
# Experimental: as §2
# [7] = target: T5, recombinant soluble murine C4.4a; assay: ELISA, IgG1 on coated recombinant murine C4.4a
# Experimental: as §1
Binder,EC50 [1] [pM],internalization t½ [min] into A549:hC4.4a cells (CypHer 5E labeled antibody) [2] [min],EC50 [3] [pM],EC50 [4] [pM],EC50 [5] [pM],EC50 [6] [pM],EC50 [7] [pM]
"M20-D02 S-A (antibody, human IgG1, V domains shown, tested as human IgG1) VH: EVQLLESGGGLVQPGGSLRLSCAASGFTFSDYQMTWIRQTPGKGLEWVSGVSWNGARTHYADSVKGRFTISRDNSKNTLYLQMNSLRAEDTAVYYCAKGDYLVYSAYYFDSWGQGTLVTVTS VL: not shown",300,60,4300,1600,1300,1000,380
"M31-B01 (antibody, human IgG1, V domains shown, tested as human IgG1) VH: EVQLLESGGGLVQPGGSLRLSCAASGFTFSNAWMSWVRQAPGKGLEWVSYISSSGSTIYYADSVKGRFTISRDNSKNTLYLQMNSLRAEDTAVYYCAREGLWAFDYWGQGTLVTVTS VL: QSVLTQPPSASGTPGQRVTISCTGSSSNIGAGYVVHWYQQLPGTAPKLLIYDNNKRPSGVPDRFSGSKSGTSASLAISGLRSEDEADYYCAAWDDRLNGPVFGGGTKLTVLG",240,49,1900,1900,400,300,290
